The values that follow come from patent publication US20180055925A1 (UNITED STATES OF AMERICA AS REPRESENTED BY THE SECRETARY …, published 2018).

The test concerns the target T1, SpoIVA^AF488 (His6-tagged cysteine-less SpoIVA variant, C98S, with a single engineered N-terminal cysteine, … (Bacillus subtilis, UniProt P35149 1-492, Alexa Fluor 488 C5-maleimide on the single engineered cysteine at the N-terminus (second residue))).
T1 construct: SpoIVA polymerizes in the presence of ATP; also called SpoIVA^A488
T1 sequence: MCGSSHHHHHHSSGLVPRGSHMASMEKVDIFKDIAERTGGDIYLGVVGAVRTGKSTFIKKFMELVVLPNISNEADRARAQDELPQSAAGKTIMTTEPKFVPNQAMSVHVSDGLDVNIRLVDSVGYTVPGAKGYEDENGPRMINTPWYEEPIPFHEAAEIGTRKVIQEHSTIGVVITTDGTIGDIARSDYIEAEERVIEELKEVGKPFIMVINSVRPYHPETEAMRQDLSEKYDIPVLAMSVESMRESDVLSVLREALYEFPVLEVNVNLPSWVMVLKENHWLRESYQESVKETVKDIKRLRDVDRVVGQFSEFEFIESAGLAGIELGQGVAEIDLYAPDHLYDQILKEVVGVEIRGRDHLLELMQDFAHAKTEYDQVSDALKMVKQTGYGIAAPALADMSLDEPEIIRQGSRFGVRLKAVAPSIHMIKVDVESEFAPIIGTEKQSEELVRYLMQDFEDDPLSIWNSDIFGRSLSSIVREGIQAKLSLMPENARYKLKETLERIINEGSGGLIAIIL
In words: fluorescence microscopy of SpoVM-coated SSLBs incubated with increasing SpoIVA^AF488. Here is the method: SpoVM-coated SSLBs were collected by centrifugation at 13,000×g for 1 minute, and then were incubated with varying concentrations of SpoIVA^AF488 in a final volume of 100 μL buffer A containing 10 mM MgCl₂ and 4 mM ATP, overnight at room temperature with gentle inversion. SSHEL particles were collected by centrifugation and resuspended in 100 μL buffer A for microscopy. For competition assays, SpoVM-SSLBs were incubated with 0.006 μM SpoIVA^A488 in the presence or absence of 4 mM ATP in buffer A containing 10 mM MgCl₂. The fluorescent SSLBs were collected by centrifugation, and resuspended with 100 μL buffer A containing 5 μM unlabeled SpoIVA. 5 μL aliquots were taken at indicated time points for microscopy.
To test this model of basement layer assembly in vitro, spherical supported lipid bilayers (SSLBs) were constructed by coating 2 μm-diameter silica beads with a phospholipid bilayer (Bayerl and Bloom, Biophys J 58, 357-362 (1990) and Gopalakrishnan and Rouiller, Langmuir 25, 5455-5458 (2009)) to mimic the surface of the forespore. […] The SpoVM-coated SSLBs were then incubated with increasing concentrations of SpoIVA^AF488 and measured its adsorption using fluorescence microscopy (FIG. 1C). […] At higher concentrations of SpoIVA^AF488 the heterogeneity in fluorescence between SSLBs was reduced and SpoIVA^AF488 adsorption approached saturation (FIG. 1C, 1E).

B1: SpoVM (synthesized 26 amino acid peptide, adsorbed on spherical supported lipid bilayers) (peptide)
peptide: MKFYTIKLPKFLGGIVRAMLGSFRKD
notes: also called SpoVM peptide; SpoVM-coated SSLBs
On to B1, for which the binding result is recorded as “binds”.
